According to the supplement of paper PMC7877785:
± gives the uncertainty stated by the source.

Assay: self-splicing fitness, log relative to wild type (ln ratio); higher = more splicing; Tetrahymena group I intron in knt gene, E. coli kanamycin selection, DiMSum; sequences stand for … in CUCUCU…GGAGGGAAAAGUUAUCAGGCAUGCACCUGGUAGCUAGUCUUUAAACCAAUAGAUUGCAUCGGUUUAAAAGGCAAGACCGUCAAAUUGCGGGAAAGGGGUCAACAGCCGUUCAGUACCAAGUCUCAGGGGAAACUUUGAGAUGGCCUUGCAAAGGGUAUGGUAAUAAGCUGACGGACAUGGUCCUAACCACGCAGCCAAGUCCUAAGUCAACAGAUCUUCUGUUGAUAUGGAUGCAGUUCACAGACUAAAUGUCGGUCGGGGAAGAUGUAUUCUUCUCAUAAGAUAUAGUCGGACCUCUCCUUAAUGGGAGCUAGCGGAUGAAGUGAUGCAACACUGGAGCCGCUGGGAACUAAUUUGUAUGCGAAAGUAUAUUGAUUAGUUUUGGAGUACUCGUGGUCG
Summary of the method: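 Colonies from six replicate transformations of E. coli BL21(DE3) were pooled and amplicon-sequenced on an Illumina HiSeq 2500. The library placed an intron with all eight P1ex-region nucleotides randomised inside the knt kanamycin-resistance gene on pET-22b(+), and cells grew overnight at 37°C or 30°C on LB agar with or without 25 μg/mL kanamycin (plus 100 μg/mL carbenicillin, 50 μM IPTG, 0.2% rhamnose). Fitness is the DiMSum error-weighted combination of wild-type-normalised replicate fold changes, kanamycin versus none.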

Sequence	self-splicing fitness (ln) (30 °C)	self-splicing fitness (ln) (37 °C)
UGCUAGCAAUAUUACGAUUU	-2.4 ± 0.18	-1.1 ± 0.16
UAAAAGCAAUAUUACGAGGG	-3.83 ± 0.33	-2.47 ± 0.3
GACGAGCAAUAUUACGGAUA	-2.52 ± 0.24	-2.55 ± 0.44
GGGAAGCAAUAUUACGCAUG	-1.38 ± 0.16	-0.366 ± 0.2
CAAUAGCAAUAUUACGUGCG	-0.75 ± 0.072	-0.0882 ± 0.08
UGCAAGCAAUAUUACGGCGC	-3.27 ± 0.18	-2.84 ± 0.31
GUUAAGCAAUAUUACGUCAA	-1.38 ± 0.11	-1.33 ± 0.13
AUAGAGCAAUAUUACGGGGC	-3.43 ± 0.43	-2.51 ± 0.41
AACGAGCAAUAUUACGUAGC	-3.51 ± 0.19	-2.44 ± 0.17
AAUUAGCAAUAUUACGAAUA	-1.67 ± 0.41	0.49 ± 0.3
CCUUAGCAAUAUUACGAACG	-0.742 ± 0.18	-0.847 ± 0.25
UCAAAGCAAUAUUACGGGAA	-1.5 ± 0.15	-0.928 ± 0.16
UUAAAGCAAUAUUACGCACA	0.245 ± 0.098	-0.401 ± 0.12
AUGGAGCAAUAUUACGAAAU	-1.92 ± 0.23	
GCUUAGCAAUAUUACGACCU	-0.423 ± 0.1	0.203 ± 0.14
AUUGAGCAAUAUUACGGCUG	-1.83 ± 0.14	-1.81 ± 0.17
GCGUAGCAAUAUUACGUUAA	-2.13 ± 0.23	-1.74 ± 0.2
GAUCAGCAAUAUUACGGAUU	-3.32 ± 0.24	-2.52 ± 0.24
CGUCAGCAAUAUUACGAUUA	-0.469 ± 0.17	0.0103 ± 0.13
CCUGAGCAAUAUUACGGCGU	-3.51 ± 0.2	-2.88 ± 0.19
UCUUAGCAAUAUUACGCGUA	-3.4 ± 0.24	-1.38 ± 0.15
AAUUAGCAAUAUUACGGAGA	-3.3 ± 0.45	-1.98 ± 0.36
UACGAGCAAUAUUACGGGUG	-1.88 ± 0.074	-0.725 ± 0.087
ACCUAGCAAUAUUACGGGAC	-1.87 ± 0.17	-1.36 ± 0.18
AACGAGCAAUAUUACGGGAG	-3.14 ± 0.17	-2.72 ± 0.19

Sequence	self-splicing fitness (ln) (30 °C)	self-splicing fitness (ln) (37 °C)
CCUCAGCAAUAUUACGUAUC	-0.834 ± 0.13	-3.05 ± 0.26
GUCGAGCAAUAUUACGGAAC	-3.01 ± 0.19	-1.9 ± 0.2
UCUGAGCAAUAUUACGCUGG	-2 ± 0.16	-1.11 ± 0.17
ACGAAGCAAUAUUACGCCGU	-3.86 ± 0.37	-1.57 ± 0.23
GCUCAGCAAUAUUACGUAUU	-0.945 ± 0.053	-0.23 ± 0.068
AGAUAGCAAUAUUACGAAUU	-2.43 ± 0.15	-1.25 ± 0.16
CGAAAGCAAUAUUACGGGAA	-2.17 ± 0.4	-2.08 ± 0.26
AGGUAGCAAUAUUACGUUUA	-2.151 ± 0.019	-1.33 ± 0.034
UCUGAGCAAUAUUACGCUCC	-2.04 ± 0.49	
CAGUAGCAAUAUUACGUACU	-1.78 ± 0.12	-1.3 ± 0.1
GAAGAGCAAUAUUACGACUG	-3.86 ± 0.39	-1.88 ± 0.16
AGGCAGCAAUAUUACGCACU	-1.3 ± 0.11	-0.863 ± 0.17
CGGCAGCAAUAUUACGAGCU	-2.8 ± 0.17	-1.55 ± 0.14
GAUGAGCAAUAUUACGACGA	-1.5 ± 0.13	-1.3 ± 0.15
ACCAAGCAAUAUUACGGCGA	-0.805 ± 0.064	-0.254 ± 0.072
AAGAAGCAAUAUUACGGGGC		-2.95 ± 0.26
UUUCAGCAAUAUUACGUACU	-1.49 ± 0.15	-0.647 ± 0.17
UGUAAGCAAUAUUACGUCAC	-2.9 ± 0.19	-2.28 ± 0.25
AGAUAGCAAUAUUACGGUUC	-1.77 ± 0.12	-0.791 ± 0.19
CAGAAGCAAUAUUACGCCUU	-1.78 ± 0.087	-0.677 ± 0.11
GUGUAGCAAUAUUACGAAUG		-1.51 ± 0.25
GCUCAGCAAUAUUACGACUA	-0.565 ± 0.17	-0.247 ± 0.18
GGUAAGCAAUAUUACGGAAG	-3.03 ± 0.18	-2.56 ± 0.26
CUAAAGCAAUAUUACGAGCG	0.136 ± 0.057	0.289 ± 0.073
AUAAAGCAAUAUUACGGCGA	0.447 ± 0.1	1.03 ± 0.14

Sequence	self-splicing fitness (ln) (30 °C)	self-splicing fitness (ln) (37 °C)
AAGUAGCAAUAUUACGAUUC	-0.923 ± 0.12	-0.577 ± 0.15
GUUUAGCAAUAUUACGGAGA		-2.24 ± 0.46
GAACAGCAAUAUUACGCGCU	-0.914 ± 0.088	-0.133 ± 0.11
UAUCAGCAAUAUUACGCUGG	-3.15 ± 0.25	-1.62 ± 0.21
CCAGAGCAAUAUUACGAACA	-2.39 ± 0.47	-1.48 ± 0.49
AGAGAGCAAUAUUACGUCAU		-1.01 ± 0.16
AUCGAGCAAUAUUACGGGCG	-2.97 ± 0.16	-2.37 ± 0.19
GAAGAGCAAUAUUACGGGGU	-3.09 ± 0.34	-1.83 ± 0.28
UUUUAGCAAUAUUACGUGAA	-1.14 ± 0.074	-0.89 ± 0.1
AACCAGCAAUAUUACGGUAC	-2.82 ± 0.12	-1.1 ± 0.088
GCAUAGCAAUAUUACGGGAC	-2.49 ± 0.17	-0.217 ± 0.14
AAACAGCAAUAUUACGGGUC	-3.47 ± 0.16	-3.08 ± 0.22
CGCGAGCAAUAUUACGAAUG	-1.9 ± 0.095	-0.424 ± 0.13
AGAAAGCAAUAUUACGGCAG	-0.958 ± 0.095	-1.28 ± 0.12
UCUCAGCAAUAUUACGACUC	-3.38 ± 0.38	-2.02 ± 0.33
CUCAAGCAAUAUUACGUCAG	-1.5 ± 0.077	-0.908 ± 0.099
CAUAAGCAAUAUUACGGGAA	-2.98 ± 0.21	-2.23 ± 0.16
UUGGAGCAAUAUUACGGCUG	-2.22 ± 0.28	
AGUCAGCAAUAUUACGAAUG	-1.62 ± 0.09	-0.853 ± 0.11
UAGUAGCAAUAUUACGACGA	-0.284 ± 0.18	0.242 ± 0.16
AGGUAGCAAUAUUACGUUGA	-2.893 ± 0.022	-1.61 ± 0.035
CCUUAGCAAUAUUACGGUUU	-4.06 ± 0.16	-2.42 ± 0.14
UUCCAGCAAUAUUACGCUGU	-3.96 ± 0.24	-2.42 ± 0.22
UGGGAGCAAUAUUACGUGUA		-2.2 ± 0.26
GGGCAGCAAUAUUACGCGCC	-3.31 ± 0.18	-2.82 ± 0.28

Sequence	self-splicing fitness (ln) (30 °C)	self-splicing fitness (ln) (37 °C)
AGGUAGCAAUAUUACGUUAG	-3.842 ± 0.029	-2.87 ± 0.042
GAAGAGCAAUAUUACGUCUU	-4.83 ± 0.19	-2.4 ± 0.081
AAGAAGCAAUAUUACGACUA	0.152 ± 0.072	0.144 ± 0.1
CUGAAGCAAUAUUACGCGCU	-3.35 ± 0.29	
AAGUAGCAAUAUUACGGUAG	-2.85 ± 0.22	-2.72 ± 0.2
CAGUAGCAAUAUUACGUAUU	-3.48 ± 0.2	-1.81 ± 0.2
GAACAGCAAUAUUACGGUGU	-2.02 ± 0.066	-0.373 ± 0.069
ACGGAGCAAUAUUACGGAUA	-3.27 ± 0.33	-2.61 ± 0.42
UGGAAGCAAUAUUACGCUGU	-2.58 ± 0.41	-2.3 ± 0.49
GAAGAGCAAUAUUACGCUUC	-2.47 ± 0.34	-1.37 ± 0.18
CCCAAGCAAUAUUACGGUUC	-3.38 ± 0.13	-2.6 ± 0.18
CCUGAGCAAUAUUACGCAGA	-3.44 ± 0.23	-1.96 ± 0.15
GGGUAGCAAUAUUACGUACA	-1.34 ± 0.2	-0.763 ± 0.21
CACUAGCAAUAUUACGUUGG	-2.27 ± 0.11	-2.03 ± 0.16
GUCCAGCAAUAUUACGCUCC	-0.889 ± 0.17	-0.563 ± 0.2
CUACAGCAAUAUUACGUUCA	-2.98 ± 0.19	-0.865 ± 0.098
UCUGAGCAAUAUUACGCGUA	-2.5 ± 0.19	0.763 ± 0.13
UAGGAGCAAUAUUACGUAGA	-1.5 ± 0.2	-1.06 ± 0.16
CGAGAGCAAUAUUACGUCGU		-3.09 ± 0.37
GCAUAGCAAUAUUACGCGAA	-2.13 ± 0.1	-1.62 ± 0.12
UACCAGCAAUAUUACGAGCC	-4.51 ± 0.33	-2.07 ± 0.32
CAGAAGCAAUAUUACGACUC	-0.803 ± 0.069	-0.342 ± 0.095
UGCAAGCAAUAUUACGAGUU	-1.88 ± 0.084	-0.67 ± 0.098
